# Results: IntAct's records for PubMed 24325460
# B1: Isocitrate dehydrogenase [NADP] (Bacillus subtilis), P39126 (parent)
# chain: MAQGEKITVSNGVLNVPNNPIIPFIEGDGTGPDIWNAASKVLEAAVEKAYKGEKKITWKEVYAGEKAYNKTGEWLPAETLDVIREYFIAIKGPLTTPVGGGIRSLNVALRQELDLFVCLRPVRYFTGVPSPVKRPEDTDMVIFRENTEDIYAGIEYAKGSEEVQKLISFLQNELNVNKIRFPETSGIGIKPVSEEGTSRLVRAAIDYAIEHGRKSVTLVHKGNIMKFTEGAFKNWGYELAEKEYGDKVFTWAQYDRIAEEQGKDAANKAQSEAEAAGKIIIKDSIADIFLQQILTRPNEFDVVATMNLNGDYISDALAAQVGGIGIAPGANINYETGHAIFEATHGTAPKYAGLDKVNPSSVILSGVLLLEHLGWNEAADLVIKSMEKTIASKVVTYDFARLMDGATEVKCSEFGEELIKNMD
# partner: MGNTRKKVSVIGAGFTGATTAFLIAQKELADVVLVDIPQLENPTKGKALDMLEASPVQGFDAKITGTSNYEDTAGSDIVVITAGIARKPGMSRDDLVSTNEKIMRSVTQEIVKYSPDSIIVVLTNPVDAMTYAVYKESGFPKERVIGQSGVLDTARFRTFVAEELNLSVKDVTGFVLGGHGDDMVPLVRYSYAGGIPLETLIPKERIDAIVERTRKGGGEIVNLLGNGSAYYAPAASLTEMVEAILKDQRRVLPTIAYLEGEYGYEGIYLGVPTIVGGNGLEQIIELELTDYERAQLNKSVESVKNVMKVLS
# Variants of: B1
# Conditions: with mdh_bacsu mdh
row,Variant,effect of a mutation on the interaction
1,MAQGEKITVSNGVLNVPNNPIIPFIEGDGTGPDIWNAASKVLEAAVEKAYKGEKKITWKEVYAGEKAYNKTGEWLPAETLDVIREYFIAIKGPLTTPVGGGIRPLNVALRQELDLFVCLRPVRYFTGVPSPVKRPEDTDMVIFRENTEDIYAGIEYAKGSEEVQKLISFLQNELNVNKIRFPETSGIGIKPVSEEGTSRLVRAAIDYAIEHGRKSVTLVHKGNIMKFTEGAFKNWGYELAEKEYGDKVFTWAQYDRIAEEQGKDAANKAQSEAEAAGKIIIKDSIADIFLQQILTRPNEFDVVATMNLNGDYISDALAAQVGGIGIAPGANINYETGHAIFEATHGTAPKYAGLDKVNPSSVILSGVLLLEHLGWNEAADLVIKSMEKTIASKVVTYDFARLMDGATEVKCSEFGEELIKNMD [S104P],increasing interaction
